Laboratory results taken from US20130209454A1.
Where a chain is given by its changes, count along the chain named. Names and notes keep the numbering of the source.

Key:
Assay in all cases: cell-based or functional assay
[1] = molecular target: HIV-1 Env of strain 3718.v3.c11 (HIV-1)
[2] = molecular target: HIV-1 Env of strain 620345.c01 (HIV-1)
[3] = molecular target: HIV-1 Env of strain 62357_14_D3_4589 (HIV-1)
[4] = molecular target: HIV-1 strain ZM109F.PB4 envelope (gp120) (HIV-1)
[5] = molecular target: HIV-1 strain Ce0393_C3 envelope (gp120) (HIV-1)
[6] = molecular target: HIV-1 strain T257-31 envelope (gp120) (HIV-1)
[7] = molecular target: HIV-1 strain ZM135M.PL10a envelope (gp120) (HIV-1)
[8] = molecular target: HIV-1 Env of strain CNE30 (HIV-1)
[9] = molecular target: HIV-1 Env of strain Q842.d12 (HIV-1)
[10] = molecular target: HIV-1 Env of strain ZM135M.PL10a (HIV-1)
[11] = molecular target: HIV-1 Env of strain T257-31 (HIV-1)
[12] = molecular target: HIV-1 strain C3347.c11 envelope (gp120) (HIV-1)
[13] = molecular target: HIV-1 strain Q23.17 envelope (gp120) (HIV-1)
[14] = molecular target: HIV-1 strain R1166.c01 envelope (gp120) (HIV-1)
[15] = molecular target: HIV-1 strain 703357.C02 envelope (gp120) (HIV-1)
[16] = molecular target: HIV-1 strain QH0692.42 envelope (gp120) (HIV-1)
[17] = molecular target: HIV-1 strain ZM197M.PB7 envelope (gp120) (HIV-1)
[18] = molecular target: HIV-1 Env of strain WEAU_d15_410_787 (HIV-1)
[19] = molecular target: HIV-1 Env of strain WITO4160.33 (HIV-1)
[20] = molecular target: HIV-1 strain 6540.v4.c1 envelope (gp120) (HIV-1)
[21] = molecular target: HIV-1 strain 6480.v4.c25 envelope (gp120) (HIV-1)
[22] = molecular target: HIV-1 strain ZM214M.PL15 envelope (gp120) (HIV-1)
[23] = molecular target: HIV-1 Env of strain QH0692.42 (HIV-1)
[24] = molecular target: HIV-1 strain Q769.d22 envelope (gp120) (HIV-1)
[25] = molecular target: HIV-1 strain CAAN5342.A2 envelope (gp120) (HIV-1)
[26] = molecular target: HIV-1 Env of strain Du172.17 (HIV-1)
[27] = molecular target: HIV-1 strain 3103.v3.c10 envelope (gp120) (HIV-1)
[28] = molecular target: HIV-1 strain Ce0682_E4 envelope (gp120) (HIV-1)
[29] = molecular target: HIV-1 Env of strain CAAN5342.A2 (HIV-1)
[30] = molecular target: HIV-1 Env of strain 6545.v4.cl (HIV-1)
[31] = molecular target: HIV-1 Env of strain Q769.d22 (HIV-1)
[32] = molecular target: HIV-1 strain P0402_c2_11 envelope (gp120) (HIV-1)
[33] = molecular target: HIV-1 Env of strain PVO.4 (HIV-1)
[34] = molecular target: HIV-1 Env of strain TRO.11 (HIV-1)
[35] = molecular target: HIV-1 strain Q842.d12 envelope (gp120) (HIV-1)
[36] = molecular target: HIV-1 strain 3016.v5.c45 envelope (gp120) (HIV-1)
[37] = molecular target: HIV-1 Env of strain Q23.17 (HIV-1)
[38] = molecular target: HIV-1 strain 3718.v3.c11 envelope (gp120) (HIV-1)
[39] = molecular target: HIV-1 Env of strain 3415.v1.c1 (HIV-1)
[40] = molecular target: HIV-1 strain Ce703010054_2A2 envelope (gp120) (HIV-1)
[41] = molecular target: HIV-1 strain 6535.3 envelope (gp120) (HIV-1)
[42] = molecular target: HIV-1 strain HIV-16845-2.22 envelope (gp120) (HIV-1)
[43] = molecular target: HIV-1 strain WITO4160.33 envelope (gp120) (HIV-1)
[44] = molecular target: HIV-1 strain TRJO4551.58 envelope (gp120) (HIV-1)
[45] = molecular target: HIV-1 Env of strain ZM53M.PB12 (HIV-1)
[46] = molecular target: HIV-1 Env of strain T278-50 (HIV-1)
[47] = molecular target: HIV-1 Env of strain ZM197M.PB7 (HIV-1)
[48] = molecular target: HIV-1 Env of strain Ce0393_C3 (HIV-1)
[49] = molecular target: HIV-1 strain ZM53M.PB12 envelope (gp120) (HIV-1)
[50] = molecular target: HIV-1 strain 1006_11_C3_1601 envelope (gp120) (HIV-1)

B1: NIH45-46^G54Y IgG (antibody, name in Kabat numbering, V domains shown)
VH: QVRLSQSGGQMKKPGESMRLSCRASGYEFLNCPINWIRLAPGRRPEWMGWLKPRYGAVNYARKFQGRVTMTRDVYSDTAFLELRSLTSDDTAVYFCTRGKYCTARDYYNWDFEHWGRGAPVTVSS
VL: EIVLTQSPATLSLSPGETAIISCRTSQSGSLAWYQQRPGQAPRLVIYSGSTRAAGIPDRFSGSRWGADYNLSISNLESGDFGVYYCQQYEFFGQGTKVQVDI
For B1, which neutralization IC50 [1] is on record?
The neutralization IC50 was 0.3 µg/mL.

And the neutralization IC50 [2]?
The neutralization IC50 was over 50 µg/mL.

What about the neutralization IC50 [3] of the same binder?
Its neutralization IC50 is 0.03 µg/mL.

What about the neutralization IC80 [4] of the same binder?
Its neutralization IC80 is 0.168 µg/mL.

What about the neutralization IC80 [5] of the same binder?
The neutralization IC80 was 0.134 µg/mL.

What about the neutralization IC80 [6] of the same binder?
Its neutralization IC80 is 0.67 µg/mL.

And the neutralization IC80 [7]?
Its neutralization IC80 is 0.3 µg/mL.

And the neutralization IC50 [8]?
Its neutralization IC50 is 0.099 µg/mL.

And the neutralization IC50 [9]?
The neutralization IC50 was 0.015 µg/mL.

What about the neutralization IC50 [10] of the same binder?
Its neutralization IC50 is 0.09 µg/mL.

And the neutralization IC50 [11]?
Its neutralization IC50 is 0.18 µg/mL.

And the neutralization IC80 [12]?
The neutralization IC80 was 0.052 µg/mL.

What about the neutralization IC80 [13] of the same binder?
The neutralization IC80 was 0.06 µg/mL.

What about the neutralization IC80 [14] of the same binder?
Its neutralization IC80 is 0.84 µg/mL.

What about the neutralization IC80 [15] of the same binder?
Its neutralization IC80 is 30.6 µg/mL.

What about the neutralization IC80 [16] of the same binder?
The neutralization IC80 was 1.5 µg/mL.

What about the neutralization IC80 [17] of the same binder?
The neutralization IC80 was 0.21 µg/mL.

And the neutralization IC50 [18]?
The neutralization IC50 was 0.002 µg/mL.

And the neutralization IC50 [19]?
Its neutralization IC50 is 0.03 µg/mL.

What about the neutralization IC80 [20] of the same binder?
The neutralization IC80 was over 50 µg/mL.

And the neutralization IC80 [21]?
Its neutralization IC80 is 0.051 µg/mL.

What about the neutralization IC80 [22] of the same binder?
Its neutralization IC80 is 0.23 µg/mL.

What about the neutralization IC50 [23] of the same binder?
Its neutralization IC50 is 0.52 µg/mL.

And the neutralization IC80 [24]?
The neutralization IC80 was 0.024 µg/mL.

And the neutralization IC80 [25]?
Its neutralization IC80 is 0.27 µg/mL.

And the neutralization IC50 [26]?
Its neutralization IC50 is over 50 µg/mL.

What about the neutralization IC80 [27] of the same binder?
Its neutralization IC80 is 0.81 µg/mL.

What about the neutralization IC80 [28] of the same binder?
Its neutralization IC80 is 0.065 µg/mL.

What about the neutralization IC50 [29] of the same binder?
Its neutralization IC50 is 0.1 µg/mL.

What about the neutralization IC50 [30] of the same binder?
Its neutralization IC50 is over 50 µg/mL.

And the neutralization IC50 [31]?
The neutralization IC50 was 0.007 µg/mL.

And the neutralization IC80 [32]?
Its neutralization IC80 is 0.049 µg/mL.

What about the neutralization IC50 [33] of the same binder?
The neutralization IC50 was 0.06 µg/mL.

What about the neutralization IC50 [34] of the same binder?
Its neutralization IC50 is 0.08 µg/mL.

And the neutralization IC80 [35]?
The neutralization IC80 was 0.045 µg/mL.

And the neutralization IC80 [36]?
Its neutralization IC80 is over 50 µg/mL.

What about the neutralization IC50 [37] of the same binder?
Its neutralization IC50 is 0.02 µg/mL.

What about the neutralization IC80 [38] of the same binder?
The neutralization IC80 was 3.85 µg/mL.

And the neutralization IC50 [39]?
The neutralization IC50 was under 0.001 µg/mL.

What about the neutralization IC80 [40] of the same binder?
Its neutralization IC80 is 0.07 µg/mL.

What about the neutralization IC80 [41] of the same binder?
The neutralization IC80 was 0.24 µg/mL.

And the neutralization IC80 [42]?
The neutralization IC80 was 2.75 µg/mL.

What about the neutralization IC80 [43] of the same binder?
Its neutralization IC80 is 0.09 µg/mL.

And the neutralization IC80 [44]?
Its neutralization IC80 is 0.07 µg/mL.

And the neutralization IC50 [45]?
Its neutralization IC50 is 0.06 µg/mL.

And the neutralization IC50 [46]?
Its neutralization IC50 is over 50 µg/mL.

And the neutralization IC50 [47]?
Its neutralization IC50 is 0.07 µg/mL.

And the neutralization IC50 [48]?
Its neutralization IC50 is 0.036 µg/mL.

And the neutralization IC80 [49]?
Its neutralization IC80 is 0.22 µg/mL.

What about the neutralization IC80 [50] of the same binder?
Its neutralization IC80 is 0.021 µg/mL.

B2: NIH45-46^G54W (antibody, V domains shown)
VH: B1 VH with Y55W
VL: B1 VL
For B2, which IC50, pseudovirus neutralization [2] is on record?
Its IC50, pseudovirus neutralization is over 50 µg/mL.

What about the IC50, pseudovirus neutralization [3] of the same binder?
The IC50, pseudovirus neutralization was 0.02 µg/mL.

What about the IC50, pseudovirus neutralization [8] of the same binder?
Its IC50, pseudovirus neutralization is 0.052 µg/mL.

And the IC50, pseudovirus neutralization [9]?
Its IC50, pseudovirus neutralization is 0.005 µg/mL.

What about the IC50, pseudovirus neutralization [10] of the same binder?
The IC50, pseudovirus neutralization was 0.04 µg/mL.

What about the IC50, pseudovirus neutralization [11] of the same binder?
The IC50, pseudovirus neutralization was 0.13 µg/mL.

And the IC50, pseudovirus neutralization [18]?
Its IC50, pseudovirus neutralization is 0.001 µg/mL.

And the IC50, pseudovirus neutralization [19]?
The IC50, pseudovirus neutralization was 0.01 µg/mL.

What about the IC50, pseudovirus neutralization [23] of the same binder?
The IC50, pseudovirus neutralization was 0.37 µg/mL.

And the IC50, pseudovirus neutralization [26]?
Its IC50, pseudovirus neutralization is 3.65 µg/mL.

What about the IC50, pseudovirus neutralization [29] of the same binder?
The IC50, pseudovirus neutralization was 0.07 µg/mL.

And the IC50, pseudovirus neutralization [31]?
Its IC50, pseudovirus neutralization is 0.001 µg/mL.

What about the IC50, pseudovirus neutralization [33] of the same binder?
The IC50, pseudovirus neutralization was 0.05 µg/mL.

What about the IC50, pseudovirus neutralization [34] of the same binder?
The IC50, pseudovirus neutralization was 0.04 µg/mL.

And the IC50, pseudovirus neutralization [37]?
The IC50, pseudovirus neutralization was 0.01 µg/mL.

What about the IC50, pseudovirus neutralization [39] of the same binder?
Its IC50, pseudovirus neutralization is 0.001 µg/mL.

What about the IC50, pseudovirus neutralization [45] of the same binder?
The IC50, pseudovirus neutralization was 0.04 µg/mL.

What about the IC50, pseudovirus neutralization [46] of the same binder?
Its IC50, pseudovirus neutralization is over 50 µg/mL.

What about the IC50, pseudovirus neutralization [47] of the same binder?
Its IC50, pseudovirus neutralization is 0.04 µg/mL.

And the IC50, pseudovirus neutralization [48]?
Its IC50, pseudovirus neutralization is 0.013 µg/mL.
